Measured values: publication PMC9098913, “In vitro reconstitution of Escherichia coli divisome activation” (Nature Communications, 2022)
Where two headings read alike, the source gives them in different places.

Columns and labels:
[1] = Single-molecule membrane residence time of FtsA; type: binding; parameters: Single Molecule Lifetime: unit not given here; settings: for Single Molecule Lifetime, mean: mean of Exp. 1-3, n = 3, Fig. 3b
Method: First, we studied the behaviour of single FtsA proteins on the membrane surface.
After 5 min of incubation, single molecule time lapses were acquired every 125, 250, 500, and 1000 and 2000 ms, with an exposure time of 50 ms. Subsequently, the bulk concentration of FtsA was increased to 0.2/0.4/0.8 µM and time lapses were repeated as described above.
Single molecules of FtsA or FtsZ were tracked using the TrackMate plugin from ImageJ[43]. To obtain the residence time of FtsZ and FtsA, we performed a residence time analysis as described before[40],[47]. Shortly, single molecules were imaged at different acquisition rates (0.1–2 s) and the lifetime of the molecules was extracted from each data set. To account for photobleaching effect, the obtained lifetimes were plotted against the acquisition rate. […] Furthermore, we extracted the diffusion coefficient of FtsA single molecules at increasing concentrations. For this, we filtered the obtained data, by considering only trajectories which are present on the membrane for more than 0.4 s. […] Subsequently, the diffusion coefficient of FtsA molecules was estimated by fitting an MSD curve to each individual trajectory.

[2] = Membrane binding of FtsA by QCM-D
Method: To quantify the intrinsic membrane-affinity of the two versions of FtsA, we used Quartz Crystal Microbalance with Dissipation (QCM-D) and measured the hydrated mass of adsorbed protein on a membrane surface.
QCM-D experiments were performed with the QSense Analyzer from Biolin Scientific, equipped with silica-coated sensor (QSX 303). The sensors were cleaned for 10 s in a Zepto plasma cleaner, mounted in the QCM-D chambers and the acquisition of the experiment was first performed in the reaction buffer (50 mM Tris-HCl [pH 7.4], 150 mM KCl and 5 mM MgCl2). The supported lipid membrane was formed by rupturing 0.5 mM small unilamellar vesicles (SUVs) in the presence of MgCl2. The lipids used were 1,2-dioleoyl-sn-glycero-3-phosphocholine (DOPC) and 1,2-dioleoyl-sn-glycero-3-phospho-(1′-rac-glycerol) (DOPG) at a ratio of 67:33 mol%. After bilayer formations, the reaction buffer supplemented with 2 mM ATP, 2 mM GTP and 1 mM DTT was injected and the signal was recorded until a stable equilibrium was reached. Subsequently, increasing concentrations of FtsA were injected in the QCM-D chamber and changes in frequency and dissipation were monitored in real-time. The flow rate used in all experiments was 25 µl min^−1, and the temperature was set to 25 °C. To estimate the membrane-binding affinity, we extracted the frequency changes of the 5th acoustic harmonic for different FtsA concentrations and fitted a Hill equation y=S+(E−S)⋅(x^n/k^n+x^n) , where S is the starting point, E the end point, n is the Hill coefficient and k the dissociation constant. The measured binding affinity is an upper estimate, because QCM-D accounts not only on the dry molecular mass, but also on the hydration shell of the molecular assembly.

[3] = test system: FtsZ; settings: for Pearson correlation coefficient (PCC) FtsA/FtsZ: 1.25 µM FtsZ
Method: Additionally, the reaction chamber contained 4 mM ATP and 4 mM GTP, as well as a scavenging system to minimize photobleaching effects: 30 mM d-glucose, 0.050 mg ml^−1 Glucose Oxidase, 0.016 mg ml^−1 Catalase, 1 mM DTT and 1 mM Trolox. Prior addition of all components a corresponding buffer volume was removed from the chamber to obtain a total reaction volume of 100 µl. The dynamic protein pattern was monitored by time-lapse TIRF microscopy at one frame per 2 s and 50 ms exposure time.
Time-lapse videos were first intensity-corrected and contrast-enhanced to avoid bleaching effects and simplify subsequent analysis. To remove contributions of X–Y drift, the videos were processed with the Linear Stack Alignment with SIFT plugin. […] Subsequently, regions of interest (ROIs) in the center of the stacks were chosen for colocalization analysis. The Pearson’s correlation coefficient (PCC) was quantified with the Image CorrelationJ 1o plugin. To extract information about the relative ratio of FtsZ/FtsA molecules (slope of linear regression), we also used the Image CorrelationJ 1o plugin. As an output, the plugin provides a scatterplot of FtsZ vs FtsA intensities, to which we fitted a linear slope y=k⋅x+d , where k is the slope and d the offset. The slope was used as an estimate for the ratio of FtsA molecules below FtsZ filaments[42].

[4] = test system: FtsZ filaments; assay: Slope of linear regression FtsZ vs FtsA intensity (packing of FtsA below FtsZ filaments); type: biochemical, E. coli
Text: While fluorescence microscopy cannot resolve molecular assemblies of these small dimensions, a higher packing density of FtsA R286W below FtsZ filaments could explain the enhanced colocalization with FtsZ. To test this hypothesis, we analysed the pixel-by-pixel relationship between the fluorescence intensities of FtsZ and FtsA in dual-colour fluorescence time-lapse movies. […] At low FtsA concentrations, we found the slopes for both proteins to be similar.

B1: FtsA R286W (protein)
chain: MIKATDRKLVVGLEIGTAKVAALVGEVLPDGMVNIIGVGSCPSRGMDKGGVNDLESVVKCVQRAIDQAELMADCQISSVYLALSGKHISCQNEIGMVPISEEEVTQEDVENVVHTAKSVRVRDEHRVLHVIPQEYAIDYQEGIKNPVGLSGVRMQAKVHLITCHNDMAKNIVKAVERCGLKVDQLIFAGLASSYSVLTEDERELGVCVVDIGGGTMDIAVYTGGALRHTKVIPYAGNVVTSDIAYAFGTPPSDAEAIKVRHGCALGSIVGKDESVEVPSVGGRPPWSLQRQTLAEVIEPRYTELLNLVNEEILQLQEKLRQQGVKHHLAAGIVLTGGAAQIEGLAACAQRVFHTQVRIGAPLNITGLTDYAQEPYYSTAVGLLHYGKESHLNGEAEVEKRVTASVGSWIKRLNSWLRKEF
modifications: Cy3 or Cy5 at the N-terminus in the labelled form (labelled CLEPTGG peptide conjugated to the 5xGly tag by sortagging); unlabelled protein also used; left off: TwinStrep-SUMO, N-terminal, cleaved | 5x
- Single Molecule Lifetime ([1]; 0.1 µM FtsA, Exp. 1): 1.99
- Single Molecule Lifetime ([1]; 0.1µM FtsA, Exp. 2): 2.89
- Single Molecule Lifetime ([1]; 0.1 µM FtsA, Exp. 3): 3.02
- Single Molecule Lifetime, mean ([1]; 0.1 µM FtsA): 2.63
- Single Molecule Lifetime ([1]; 0.2 µM FtsA, Exp. 1): 3.32
- Single Molecule Lifetime ([1]; 0.2µM FtsA, Exp. 2): 7.68
- Single Molecule Lifetime ([1]; 0.2 µM FtsA, Exp. 3): 10.90
- Single Molecule Lifetime, mean ([1]; 0.2 µM FtsA): 7.30
- Single Molecule Lifetime ([1]; 0.4 µM FtsA, Exp. 1): 8.16
- Single Molecule Lifetime ([1]; 0.4µM FtsA, Exp. 2): 11.60
- Single Molecule Lifetime ([1]; 0.4 µM FtsA, Exp. 3): 5.33
- Single Molecule Lifetime, mean ([1]; 0.4 µM FtsA): 8.36
- Single Molecule Lifetime ([1]; 0.8 µM FtsA, Exp. 1): 15.60
- Single Molecule Lifetime ([1]; 0.8µM FtsA, Exp. 2): 10.90
- Single Molecule Lifetime ([1]; 0.8 µM FtsA, Exp. 3): 15.80
- Single Molecule Lifetime, mean ([1]; 0.8 µM FtsA): 14.10
- Mean of QCM-D experiments ([2]; 0.01 µM): 0.81
- Mean of QCM-D experiments ([2]; 0.05 µM): 1.79
- Mean of QCM-D experiments ([2]; 0.10 µM): 3.36
- amount of membrane-bound protein saturated at ([2]; QCM-D): 0.8 µM
- Kd ([2]; QCM-D, Hill fit, 5th harmonic, DOPC:DOPG 67:33 mol%, pH 7.4, 150 mM KCl, 5 mM MgCl2, 2 mM ATP, 2 mM GTP, 25 °C, n = 2, upper estimate): 320 ± 50 nM
- PCC FtsZ/FtsA ([3]; 0.1µM FtsA, Exp. 2): 0.41
- PCC FtsZ/FtsA ([3]; 0.1µM FtsA, replicate 1 (row printed 'goo')): 0.73
- PCC FtsZ/FtsA ([3]; 0.2µM FtsA, Exp. 2): 0.77
- PCC FtsZ/FtsA ([3]; 0.2µM FtsA, replicate 1 (row printed 'goo')): 0.89
- Pearson correlation coefficient (PCC) FtsA/FtsZ ([3]; 0.4 µM FtsA, mean ± s.d., WT vs R286W p-value 1.28 × 10^−5): 0.84 ± 0.05
- PCC FtsZ/FtsA ([3]; 0.4µM FtsA, Exp. 2): 0.83
- PCC FtsZ/FtsA ([3]; 0.4µM FtsA, replicate 1 (row printed 'goo')): 0.89
- PCC FtsZ/FtsA ([3]; 0.8µM FtsA, Exp. 2): 0.83
- PCC FtsZ/FtsA ([3]; 0.8µM FtsA, replicate 1 (row printed 'goo')): 0.88
- Pearson correlation coefficient (PCC) FtsA/FtsZ ([3]; all concentrations tested (0.1–0.8 µM)): around 0.8
- Slope of linear regression FtsZ vs FtsA ([4]; 0.1 µM FtsA, mean): 0.43
- Slope of linear regression, mean of single experiment ([4]; 0.1µM, replicate column 1): 0.46
- Slope of linear regression, mean of single experiment ([4]; 0.1µM, replicate column 2): 0.49
- Slope of linear regression, mean of single experiment ([4]; 0.1µM, replicate column 3): 0.39
- Slope of linear regression FtsZ vs FtsA ([4]; 0.2 µM FtsA, mean): 0.60
- Slope of linear regression, mean of single experiment ([4]; 0.2µM, replicate column 1): 0.53
- Slope of linear regression, mean of single experiment ([4]; 0.2µM, replicate column 2): 0.81
- Slope of linear regression, mean of single experiment ([4]; 0.2µM, replicate column 3): 0.58
- Slope of linear regression, mean of single experiment ([4]; 0.4µM, replicate column 1): 0.63
- Slope of linear regression FtsZ vs FtsA ([4]; 0.8 µM FtsA, mean): 0.72
- Slope of linear regression FtsZ vs FtsA ([4]; above 0.2 µM, remained constant): ~ 0.7
